Data from IntAct's records for PubMed 23873930.

B1: Transcriptional coactivator YAP1 (Homo sapiens), P46937-3 (parent)
chain: MDPGQQPPPQPAPQGQGQPPSQPPQGQGPPSGPGQPAPAATQAAPQAPPAGHQIVHVRGDSETDLEALFNAVMNPKTANVPQTVPMRLRKLPDSFFKPPEPKSHSRQASTDAGTAGALTPQHVRAHSSPASLQLGAVSPGTLTPTGVVSGPAATPTAQHLRQSSFEIPDDVPLPAGWEMAKTSSGQRYFLNHIDQTTTWQDPRKAMLSQMNVTAPTSPPVQQNMMNSASAMNQRISQSAPVKQPPPLAPQSPQGGVMGGSNSNQQQQMRLQQLQMEKERLRLKQQELLRQVRPQELALRSQLPTLEQDGGTQNPVSSPGMSQELRTMTTNSSDPFLNSGTYHSRDESTDSGLSMSSYSVPRTPDDFLNSVDEMDTGDTINQSTLPSQQNRFPDYLEAIPGTNVDLGTLEGDGMNIEGEELMPSLQEALSSDILNDMESVLAATKLDKESFLTWL
partner: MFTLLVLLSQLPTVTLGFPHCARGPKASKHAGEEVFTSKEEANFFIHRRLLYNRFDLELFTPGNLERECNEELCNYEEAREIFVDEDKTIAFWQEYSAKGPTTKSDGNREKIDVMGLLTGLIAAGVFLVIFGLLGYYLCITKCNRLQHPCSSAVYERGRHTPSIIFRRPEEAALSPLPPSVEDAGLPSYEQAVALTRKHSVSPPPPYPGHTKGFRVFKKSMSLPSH
B2: Transmembrane gamma-carboxyglutamic acid protein 4 (Homo sapiens), Q9BZD6 (parent)
chain: B1 partner
B3: Transmembrane gamma-carboxyglutamic acid protein 4 (Homo sapiens), Q9BZD6 (parent)
chain: B1 partner
partner: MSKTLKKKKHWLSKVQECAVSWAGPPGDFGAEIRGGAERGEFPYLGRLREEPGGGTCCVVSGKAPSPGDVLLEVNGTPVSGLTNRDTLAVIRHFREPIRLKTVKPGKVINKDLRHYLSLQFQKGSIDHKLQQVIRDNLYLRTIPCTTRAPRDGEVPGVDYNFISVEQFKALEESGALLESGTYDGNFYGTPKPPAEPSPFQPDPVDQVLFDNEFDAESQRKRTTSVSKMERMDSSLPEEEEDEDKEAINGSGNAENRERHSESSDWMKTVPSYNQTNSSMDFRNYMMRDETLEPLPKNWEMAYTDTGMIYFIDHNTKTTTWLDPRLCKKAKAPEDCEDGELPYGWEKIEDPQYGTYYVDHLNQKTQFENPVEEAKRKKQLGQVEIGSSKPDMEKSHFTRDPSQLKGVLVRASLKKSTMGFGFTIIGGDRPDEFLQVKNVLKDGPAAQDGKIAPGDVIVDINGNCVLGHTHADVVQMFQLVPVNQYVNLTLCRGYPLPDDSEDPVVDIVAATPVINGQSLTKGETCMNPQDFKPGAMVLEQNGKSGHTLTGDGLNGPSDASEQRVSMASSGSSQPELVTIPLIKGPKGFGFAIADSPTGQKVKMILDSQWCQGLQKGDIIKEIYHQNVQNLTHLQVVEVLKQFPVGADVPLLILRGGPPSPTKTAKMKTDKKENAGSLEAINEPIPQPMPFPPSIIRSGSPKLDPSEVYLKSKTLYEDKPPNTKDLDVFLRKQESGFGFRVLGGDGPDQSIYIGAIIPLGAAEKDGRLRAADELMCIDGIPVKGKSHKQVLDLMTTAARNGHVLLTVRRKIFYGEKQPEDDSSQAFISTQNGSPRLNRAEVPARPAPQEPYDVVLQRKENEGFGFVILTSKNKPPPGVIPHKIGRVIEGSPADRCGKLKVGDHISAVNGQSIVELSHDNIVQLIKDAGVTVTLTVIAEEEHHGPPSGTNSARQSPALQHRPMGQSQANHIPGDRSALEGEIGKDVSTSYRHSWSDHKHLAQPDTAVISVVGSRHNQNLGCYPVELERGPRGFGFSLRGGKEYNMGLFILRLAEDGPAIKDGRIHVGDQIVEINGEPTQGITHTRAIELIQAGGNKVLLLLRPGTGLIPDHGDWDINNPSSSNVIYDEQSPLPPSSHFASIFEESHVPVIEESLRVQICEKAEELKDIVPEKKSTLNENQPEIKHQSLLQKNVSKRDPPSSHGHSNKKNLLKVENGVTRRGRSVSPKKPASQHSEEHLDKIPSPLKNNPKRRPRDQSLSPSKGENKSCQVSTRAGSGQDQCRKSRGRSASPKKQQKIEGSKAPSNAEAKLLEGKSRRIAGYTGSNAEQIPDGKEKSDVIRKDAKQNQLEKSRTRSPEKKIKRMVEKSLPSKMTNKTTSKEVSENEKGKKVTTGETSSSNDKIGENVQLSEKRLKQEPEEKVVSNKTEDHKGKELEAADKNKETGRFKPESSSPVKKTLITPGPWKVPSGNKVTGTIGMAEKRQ

Variants of: B1
Conditions: with tmg4_human PRRG4, Q9BZD6

Variant | effect of a mutation on the interaction
S127A | with no effect
W199A;P202A | disrupting interaction strength

Variants of: B2
Conditions: with Magi1, Q6RHR9-1
Magi1, Q6RHR9-1, sequence (Q6RHR9 whole entry): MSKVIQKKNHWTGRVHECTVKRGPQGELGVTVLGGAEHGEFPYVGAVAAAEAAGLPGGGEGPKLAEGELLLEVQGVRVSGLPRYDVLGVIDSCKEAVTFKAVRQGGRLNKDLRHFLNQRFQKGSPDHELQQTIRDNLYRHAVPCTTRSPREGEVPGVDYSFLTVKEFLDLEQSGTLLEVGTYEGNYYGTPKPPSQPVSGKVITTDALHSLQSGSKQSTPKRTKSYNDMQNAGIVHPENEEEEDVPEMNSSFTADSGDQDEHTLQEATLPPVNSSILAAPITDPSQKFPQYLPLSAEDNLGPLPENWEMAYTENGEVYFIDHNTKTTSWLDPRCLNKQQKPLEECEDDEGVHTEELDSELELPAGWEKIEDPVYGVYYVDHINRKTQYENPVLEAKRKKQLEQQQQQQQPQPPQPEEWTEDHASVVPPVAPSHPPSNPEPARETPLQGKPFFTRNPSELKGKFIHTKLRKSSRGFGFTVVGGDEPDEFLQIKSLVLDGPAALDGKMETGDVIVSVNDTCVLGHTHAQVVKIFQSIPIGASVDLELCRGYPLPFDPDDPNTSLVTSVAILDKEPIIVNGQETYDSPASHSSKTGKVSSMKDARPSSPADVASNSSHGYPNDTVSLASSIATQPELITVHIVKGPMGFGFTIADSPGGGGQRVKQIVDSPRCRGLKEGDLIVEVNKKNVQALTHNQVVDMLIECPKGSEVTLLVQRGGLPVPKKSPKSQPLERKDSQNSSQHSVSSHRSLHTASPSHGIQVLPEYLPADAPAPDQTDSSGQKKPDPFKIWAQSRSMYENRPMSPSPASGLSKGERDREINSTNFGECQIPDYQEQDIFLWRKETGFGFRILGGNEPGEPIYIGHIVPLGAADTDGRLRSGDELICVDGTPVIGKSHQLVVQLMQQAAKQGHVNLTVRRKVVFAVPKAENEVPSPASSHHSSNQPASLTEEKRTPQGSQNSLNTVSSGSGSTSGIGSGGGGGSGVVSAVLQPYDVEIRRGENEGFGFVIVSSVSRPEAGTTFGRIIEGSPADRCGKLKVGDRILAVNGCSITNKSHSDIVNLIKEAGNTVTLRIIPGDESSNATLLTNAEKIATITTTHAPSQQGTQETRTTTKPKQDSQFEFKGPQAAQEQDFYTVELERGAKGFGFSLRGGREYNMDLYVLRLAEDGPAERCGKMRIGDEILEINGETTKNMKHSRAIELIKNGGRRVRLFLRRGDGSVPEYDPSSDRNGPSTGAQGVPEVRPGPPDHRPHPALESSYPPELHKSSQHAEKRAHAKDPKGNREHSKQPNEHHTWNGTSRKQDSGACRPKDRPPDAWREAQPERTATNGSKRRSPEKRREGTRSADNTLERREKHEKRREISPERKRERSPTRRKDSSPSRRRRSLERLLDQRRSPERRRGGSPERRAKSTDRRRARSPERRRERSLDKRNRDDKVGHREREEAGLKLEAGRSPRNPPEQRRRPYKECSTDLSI

Variant | effect of a mutation on the interaction
MFTLLVLLSQLPTVTLGFPHCARGPKASKHAGEEVFTSKEEANFFIHRRLLYNRFDLELFTPGNLERECNEELCNYEEAREIFVDEDKTIAFWQEYSAKGPTTKSDGNREKIDVMGLLTGLIAAGVFLVIFGLLGYYLCITKCNRLQHPCSSAVYERGRHTPSIIFRRPEEAALSPLPPSVEDAGLPSYEQAVALTRKHSVSPPPPAPGHTKGFRVFKKSMSLPSH [Y207A] | decreasing interaction strength
MFTLLVLLSQLPTVTLGFPHCARGPKASKHAGEEVFTSKEEANFFIHRRLLYNRFDLELFTPGNLERECNEELCNYEEAREIFVDEDKTIAFWQEYSAKGPTTKSDGNREKIDVMGLLTGLIAAGVFLVIFGLLGYYLCITKCNRLQHPCSSAVYERGRHTPSIIFRRPEEAALSPLPPSVEDAGLPSAEQAVALTRKHSVSPPPPYPGHTKGFRVFKKSMSLPSH [Y189A] | disrupting interaction strength

Variants of: B2
Conditions: with wwtr1_human WWTR1, Q9GZV5
wwtr1_human WWTR1, Q9GZV5, sequence (Q9GZV5 whole entry): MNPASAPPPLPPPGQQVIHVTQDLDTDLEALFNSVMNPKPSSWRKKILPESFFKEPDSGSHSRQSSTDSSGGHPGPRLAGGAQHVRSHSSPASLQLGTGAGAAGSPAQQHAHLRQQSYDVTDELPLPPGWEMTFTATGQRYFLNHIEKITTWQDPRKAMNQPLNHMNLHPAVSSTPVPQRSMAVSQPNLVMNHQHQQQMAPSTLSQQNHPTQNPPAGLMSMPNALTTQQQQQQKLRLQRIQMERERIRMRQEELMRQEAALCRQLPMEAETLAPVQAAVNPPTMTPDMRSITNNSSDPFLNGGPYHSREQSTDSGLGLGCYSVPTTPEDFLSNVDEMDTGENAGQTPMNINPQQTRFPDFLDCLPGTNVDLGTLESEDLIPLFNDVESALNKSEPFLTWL

Variant | effect of a mutation on the interaction
MFTLLVLLSQLPTVTLGFPHCARGPKASKHAGEEVFTSKEEANFFIHRRLLYNRFDLELFTPGNLERECNEELCNYEEAREIFVDEDKTIAFWQEYSAKGPTTKSDGNREKIDVMGLLTGLIAAGVFLVIFGLLGYYLCITKCNRLQHPCSSAVYERGRHTPSIIFRRPEEAALSPLPPSVEDAGLPSYEQAVALTRKHSVSPPPPAPGHTKGFRVFKKSMSLPSH [Y207A] | with no effect
MFTLLVLLSQLPTVTLGFPHCARGPKASKHAGEEVFTSKEEANFFIHRRLLYNRFDLELFTPGNLERECNEELCNYEEAREIFVDEDKTIAFWQEYSAKGPTTKSDGNREKIDVMGLLTGLIAAGVFLVIFGLLGYYLCITKCNRLQHPCSSAVYERGRHTPSIIFRRPEEAALSPLPPSVEDAGLPSAEQAVALTRKHSVSPPPPYPGHTKGFRVFKKSMSLPSH [Y189A] | disrupting interaction strength

Variants of: B2
Conditions: with YAP1, P46937-3

Variant | effect of a mutation on the interaction
MFTLLVLLSQLPTVTLGFPHCARGPKASKHAGEEVFTSKEEANFFIHRRLLYNRFDLELFTPGNLERECNEELCNYEEAREIFVDEDKTIAFWQEYSAKGPTTKSDGNREKIDVMGLLTGLIAAGVFLVIFGLLGYYLCITKCNRLQHPCSSAVYERGRHTPSIIFRRPEEAALSPLPPSVEDAGLPSYEQAVALTRKHSVSPPPPAPGHTKGFRVFKKSMSLPSH [Y207A] | with no effect
MFTLLVLLSQLPTVTLGFPHCARGPKASKHAGEEVFTSKEEANFFIHRRLLYNRFDLELFTPGNLERECNEELCNYEEAREIFVDEDKTIAFWQEYSAKGPTTKSDGNREKIDVMGLLTGLIAAGVFLVIFGLLGYYLCITKCNRLQHPCSSAVYERGRHTPSIIFRRPEEAALSPLPPSVEDAGLPSAEQAVALTRKHSVSPPPPYPGHTKGFRVFKKSMSLPSH [Y189A] | disrupting interaction strength

Variants of: B2
Conditions: with ned4l_human NEDD4L

Variant | effect of a mutation on the interaction
MFTLLVLLSQLPTVTLGFPHCARGPKASKHAGEEVFTSKEEANFFIHRRLLYNRFDLELFTPGNLERECNEELCNYEEAREIFVDEDKTIAFWQEYSAKGPTTKSDGNREKIDVMGLLTGLIAAGVFLVIFGLLGYYLCITKCNRLQHPCSSAVYERGRHTPSIIFRRPEEAALSPLPPSVEDAGLPSYEQAVALTRKHSVSPPPPAPGHTKGFRVFKKSMSLPSH [Y207A] | with no effect
MFTLLVLLSQLPTVTLGFPHCARGPKASKHAGEEVFTSKEEANFFIHRRLLYNRFDLELFTPGNLERECNEELCNYEEAREIFVDEDKTIAFWQEYSAKGPTTKSDGNREKIDVMGLLTGLIAAGVFLVIFGLLGYYLCITKCNRLQHPCSSAVYERGRHTPSIIFRRPEEAALSPLPPSVEDAGLPSAEQAVALTRKHSVSPPPPYPGHTKGFRVFKKSMSLPSH [Y189A] | disrupting interaction strength

Variants of: B2
Conditions: with nedd4_human NEDD4, P46934
nedd4_human NEDD4, P46934, sequence (P46934 whole entry): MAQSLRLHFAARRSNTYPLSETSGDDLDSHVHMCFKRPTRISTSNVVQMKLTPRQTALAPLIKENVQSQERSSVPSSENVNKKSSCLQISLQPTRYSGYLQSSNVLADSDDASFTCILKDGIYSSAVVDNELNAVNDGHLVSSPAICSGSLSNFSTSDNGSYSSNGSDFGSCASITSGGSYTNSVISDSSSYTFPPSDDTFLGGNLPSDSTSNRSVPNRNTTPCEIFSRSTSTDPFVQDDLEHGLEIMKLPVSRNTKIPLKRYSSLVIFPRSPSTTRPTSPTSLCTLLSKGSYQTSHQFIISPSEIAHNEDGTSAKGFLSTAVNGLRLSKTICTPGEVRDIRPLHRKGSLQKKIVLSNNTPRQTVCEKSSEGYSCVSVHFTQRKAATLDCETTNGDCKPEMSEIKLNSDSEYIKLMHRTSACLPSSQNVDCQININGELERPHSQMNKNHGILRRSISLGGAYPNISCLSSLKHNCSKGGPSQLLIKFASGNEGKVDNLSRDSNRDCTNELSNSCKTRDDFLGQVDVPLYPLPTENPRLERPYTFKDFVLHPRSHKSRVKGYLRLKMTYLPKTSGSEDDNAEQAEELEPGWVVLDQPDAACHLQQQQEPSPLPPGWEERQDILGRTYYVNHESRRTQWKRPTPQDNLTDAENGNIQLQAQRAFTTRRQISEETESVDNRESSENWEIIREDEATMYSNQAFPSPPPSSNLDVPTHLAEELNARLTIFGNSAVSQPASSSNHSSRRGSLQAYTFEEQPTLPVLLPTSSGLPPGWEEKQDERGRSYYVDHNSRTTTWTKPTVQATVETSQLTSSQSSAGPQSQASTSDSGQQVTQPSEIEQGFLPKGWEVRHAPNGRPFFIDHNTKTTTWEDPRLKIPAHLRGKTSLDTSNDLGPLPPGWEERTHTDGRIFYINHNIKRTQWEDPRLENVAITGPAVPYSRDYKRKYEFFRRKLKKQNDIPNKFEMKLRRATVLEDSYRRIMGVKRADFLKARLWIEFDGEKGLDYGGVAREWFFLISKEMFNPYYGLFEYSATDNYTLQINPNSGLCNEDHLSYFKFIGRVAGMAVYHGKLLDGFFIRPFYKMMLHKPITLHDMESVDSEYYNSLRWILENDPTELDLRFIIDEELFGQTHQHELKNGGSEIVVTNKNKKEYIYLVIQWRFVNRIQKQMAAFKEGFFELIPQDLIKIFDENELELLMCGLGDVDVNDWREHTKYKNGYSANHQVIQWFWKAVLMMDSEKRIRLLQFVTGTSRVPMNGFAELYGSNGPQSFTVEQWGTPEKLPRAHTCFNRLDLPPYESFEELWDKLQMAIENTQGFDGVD

Variant | effect of a mutation on the interaction
MFTLLVLLSQLPTVTLGFPHCARGPKASKHAGEEVFTSKEEANFFIHRRLLYNRFDLELFTPGNLERECNEELCNYEEAREIFVDEDKTIAFWQEYSAKGPTTKSDGNREKIDVMGLLTGLIAAGVFLVIFGLLGYYLCITKCNRLQHPCSSAVYERGRHTPSIIFRRPEEAALSPLPPSVEDAGLPSYEQAVALTRKHSVSPPPPAPGHTKGFRVFKKSMSLPSH [Y207A] | with no effect
MFTLLVLLSQLPTVTLGFPHCARGPKASKHAGEEVFTSKEEANFFIHRRLLYNRFDLELFTPGNLERECNEELCNYEEAREIFVDEDKTIAFWQEYSAKGPTTKSDGNREKIDVMGLLTGLIAAGVFLVIFGLLGYYLCITKCNRLQHPCSSAVYERGRHTPSIIFRRPEEAALSPLPPSVEDAGLPSAEQAVALTRKHSVSPPPPYPGHTKGFRVFKKSMSLPSH [Y189A] | disrupting interaction strength

Variants of: B3
Conditions: with magi3_human MAGI3, Q5TCQ9

Variant | effect of a mutation on the interaction
MFTLLVLLSQLPTVTLGFPHCARGPKASKHAGEEVFTSKEEANFFIHRRLLYNRFDLELFTPGNLERECNEELCNYEEAREIFVDEDKTIAFWQEYSAKGPTTKSDGNREKIDVMGLLTGLIAAGVFLVIFGLLGYYLCITKCNRLQHPCSSAVYERGRHTPSIIFRRPEEAALSPLPPSVEDAGLPSYEQAVALTRKHSVSPPPPAPGHTKGFRVFKKSMSLPSH [Y207A] | with no effect
MFTLLVLLSQLPTVTLGFPHCARGPKASKHAGEEVFTSKEEANFFIHRRLLYNRFDLELFTPGNLERECNEELCNYEEAREIFVDEDKTIAFWQEYSAKGPTTKSDGNREKIDVMGLLTGLIAAGVFLVIFGLLGYYLCITKCNRLQHPCSSAVYERGRHTPSIIFRRPEEAALSPLPPSVEDAGLPSAEQAVALTRKHSVSPPPPYPGHTKGFRVFKKSMSLPSH [Y189A] | disrupting interaction strength
